Assay: yeast display, Sf9 membrane polyspecificity reagent, FACS + sequencing; frameworks hold sequencing errors
Procedure, shortened: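 Using colony PCR, genes from sorted yeast display clones were amplified, then sequenced on MiSeq at 2 × 250 and filtered by CDR length. The clones had been stained with 10% biotinylated, detergent-solubilized Sf9 membrane reagent for 1 hour at 4 °C and sorted by FACS into low and high (top ~1%) gates on anti-HA and streptavidin fluorescence. Polyreactivity labels come from the gate of origin.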

Row | Sequence | polyreactivity (PSR sort gate)
1 | QVQLVESGGVLVQAGGSLRLSCAASGRTFGWYAMGWYRQAPGKERELVAAITWRGGSTYYADSVKGRFTISRDNAKNTVYLQMNILKPEDTAVYYCAAAAEKRSYYWGQGTQVTVSS | high polyreactivity
2 | QVQLVESGGGLVQAGGSLRLSCAASGSTFVKSAMGLYRQAPGKERELVAAINWSGGNTYYADSVKGRFKISRYNAKNTVYLQMNSLKPEETAVYYCNADAYRSDFDYWGQGTQVTVSS | high polyreactivity
3 | QVQLVESGGGLVQAGGSLRLSCAASGSIFPPNAMGWYRQAPGKERELVAAITWSGGSTYYADSVKGRFTISRDNAKNTVYLQRNSLKPEDTAVYYCAKEGARSYNVRAYYYRNYYYWGQGTQVTVSS | high polyreactivity
4 | QVQLVESGGGLVQAGGSLRLSCAASGSTFSYYAMGWYRQAPGKERDLVASIDGSTGSTYYADSVKGRFTISRDNAKTTVYLQMNILKPEDTAVYYFNAESLDYYDNAYEYWGQGTQVTVSS | low polyreactivity
5 | QVQLVESGGGLVQAGGSLRLSCAASGYIFRHYAMGWYRQAPGKERELVAAISGRGGSTYYADSVKGRFTISRDNAKNTVYLQMNSLKPEDTAVYYCAKDRKAVGDFYYWGQGTQVTVSS | high polyreactivity
6 | QVQLVESGGGLVQAGGSLRLSCAASGITFGTYAMGWYRQAPGKERELVAAISQSSGRTYYADSVKGRFTISRDNAKNSVYLQMNSLKPEDTAVYYCADRTRGSSRGDYDYWGQGTQVTVSS | high polyreactivity
7 | QVQLVESGGGLVQAGGSLRLSCAASGRIFGRYAMGWYRQAPGKDRELVAAISSRGSRTYYADSVKGRFTISRDNAKNTVYLQMNSLKPEVTAVYYCAASWLSYPSDYDYWGQGTQVTVSS | high polyreactivity
8 | QVQHVESGGGLVQAGGSLRLSCAASGLTFAGYTMGWYRQAPGKERELVAAITRGGGRTYYADSVKGRFTISRDNAKNTVYLQMNSLKPEDTAVYYCATVSQYRGYYWGQGTQVTVSS | high polyreactivity
9 | QVQLVESGGGLVQAGGSLRLSCAASGRIIGTYAMGWYRQAPGKERELVAAITARTSSTYYADSVKGRFTISRDNAKNTVYLQMNSLKPEDTAVYYCARTGSYRPSFRYDYWGQGTQVTVSS | high polyreactivity
10 | QVQLVESGGGLVQAGGSLRLSCAASGGTFGNNDMGWYRQAPGKERELVAAIRSAGTTYYADSVKGRFTISRDNAKNTVYLQMNSLKPEDTAVYYWNADTTGYWSFGFQYYGEDYWGQGTQVTVSS | low polyreactivity
11 | QVQLQESGGGLVQAGGSLRPSCAASGNIFVPFKMGWYRLAPGKEREHVASINRGSTTNYADSVKGRFTISRDNAKNTVYLQMISLKPEDTAVYYCAAIAYPDIPTYLDYDSDYFYWDQGTQVTVSS | high polyreactivity
12 | QVQLVESGGGLVQAGGSLRLSCAASGNIFYKNTMGWYRQAPGKERELVAAISVSGGGTYYADSVKGRFTISRDNAKNTVYLQMNSLKPEDTAVYYCAASHRRSGGQPRYYYWGQGTQVSVSS | high polyreactivity
13 | QVQLVESGGGLVQAGGSLRLSCAASGRTFYVYTMGWYIQAPGKEREMVAGIAYSGGSTYYADSVKGRFTISRDNAKNTVYLQMNSLKPEDTAVYYCNADLYFPYFDGKTRHGGYWGQGTQVTVSS | low polyreactivity
14 | QVQLVESGGGLVQAGGSLRLSCAASGRIFSYYAMLWYRQAPGKERELVATINSGGSTNYADSVKGRFTISRDNAKNTVYLQMNSLKPEDTAVYYCAASPVWWYDNWGQGTQVTVSS | low polyreactivity
15 | QVQLVESGGGLVQAGGRLRLSCAASGSIFNANAMGWYRHAPGKEREMVAGIRSGSSTNYADSVKGRFTISRDNAKNTVYLQMNSLKPEDTAVYYCATEGYWVYGFDDEYWGQGTQVTVSS | low polyreactivity
16 | QVQLVESGGGLVQAGGSLRLSCAASGSTFTWYAMGWNRQAPGKERELVADITWRDGSTYYADSVKGRFTISRDNAKNTVYLQMNSLKPEDTAVYYCNARRDYDMDWGQGTQVTVSS | high polyreactivity

Row | Sequence | polyreactivity (PSR sort gate)
17 | QVQLVESGGGLVQAGCSLRLSCAASGRIFTGNAMGWYRQAPGKERELVAAISRSGGRTYYADSVKGRFTISRDNAKNTVYLQMNSLKPEDTAVYYCAAAGYYHTYWGTMDYWGQGTQVTVSS | high polyreactivity
18 | QVQLVESGGGLVQAGGSLRLSCAASGRTFAVYAMGWYRQAPGKERELVASIRLSGTRTYYADSVKGRFTISRDNAKNTVYLQMNSLKPEDTAVYYCAAKGTYSRGTFNGYRYDYWGQGTQVTVSS | high polyreactivity
19 | QVQLVESGGGLVQAGGSLRLSCAASGSIFIIYAMGWYRQAPGKERELVAAINTSGTSTYYADSVKGRFTISRDNAKNTVYLQMNSLKPEDTAVYYCAAAGRRSYKYYFWGQGTQVTVSS | high polyreactivity
20 | QVQLVESGGGLGQAGGSLRLSCAASGFIFTPYTMGWYRQAPGKERELVAAITDGSSTYYADSVKGRFTISRDNAKNTVYLQMNSLKQEDTAVYYCNDDGKPPYISWLYDYWGLGTQVTVSS | low polyreactivity
21 | QVQLVESGGGLVQAGGSLRLSCAASGYIFNYYAMGWYRQAPGKERELVAAISWDGTDTYYADSVKGRFTISRDNAKNTVYLQMNSLKPEDTAVYYCNADYDVYGWRNYWGQGTQVTVSS | low polyreactivity
22 | QVQLVESGGGLVQAGGSLRLSCAASGFIFIANAMGWYRQAPGKERELVAAISDGGSTYYADSVKGRFTISRDNAKNTVYLQMNSLKPEDTGVYYCAKDVTWAGHYDYWGQGTQVTVSS | low polyreactivity
23 | QVQLVESGGGLVQAGGSLRLSCAASGSIFTPYAMGWYRQAPGKERELVAAITYSGGSTYYADSVKGRFTISRDNAKNTVYLQMNSLKPEDTAVYYCAAYFNIYGLEYDYWGQGTQVTVSS | high polyreactivity
24 | RDQHVESGGGLVQAGGSLRLSCAASGRTFVPYAMGWYRQAPGKERELVAAISSGGDTNYADSVKGRFTISRDNAKNTVYLQMNSLKPEDTAVYYFAKDLTQIYYGDDYWGQGTQVTVSS | low polyreactivity
25 | QVQLVESGGGLVQAGGSLRLSCAASGSTYVYAMGLYRQAPGKERELVASISWSDSSTYYADSVKGRFTISRDNAKNTVYLQMNSLKPEDTAVYYCNADQGTRDSDYWGQGTQVTVSS | low polyreactivity
26 | QVQLVESGGGLVQAGGSLRLSCAASGSIFRGYAMGWYRQAPGKERELVAAITSRGGSTYYADSVKGRFTISRDIAKNTVYLQMNSLKPEDTAVYYCNKRVYYPWGQGTQVTVSS | high polyreactivity
27 | QVQLVESGGVLVQAGGSLRLSCAASGSTFLLNTMGWYRQAPGKERELVATITSTDDTNYADSVKGRFTISRDNAKNTVYLHMNSLKPEDTAVYYCAKGYLNYGRDWDFDSWGQGTQVTVSS | low polyreactivity
28 | QVQLVESVGGLVQAGGSLRLSCAASGRTFAYYAMGWYRQAPGKERELVAAISYRGGTTYYADSVKGRFTISRDNSKNTVYLQMYILKQEDTAVYYCAAKVGVSWYGYWGKGTQVTVSS | high polyreactivity
29 | QVQLVESGGGLVQAGGSLRLSCAASGLIFTYYDIGWYRQEPGKERELVASISWDGGRTYYADSVKGRFTIARDNAKKTVYLQMNSLKPEDTAVYYCAKRLGGSPIQARGDFWGQGTQVTVSS | low polyreactivity
30 | QVQLVESGGGLVQAGGSLRLRCAASGRIFVHYVMVWSRQAPGKEREFVAAITIGSTYADSVKGRFTISRDNAKNTVYLQMNSLKPEDTAVYYCNARWVVNVRTQGSPPYKYDYWGQGSQVTVSS | low polyreactivity
31 | QVQLVESGGCLVQAGGSLRLSCAASGSTFDINAMGWYRQAPGKESELVASITFSGGSTYYADSVKGRFTISRDNAKNTVYLQMNSLKPEDTAVYYCAADSSGEYPGGYWGQGTQVTVTS | low polyreactivity
32 | QLQLVESGGWLVQAGGSLRLSCAASGGTIVTYAMGWYRQAPGKERELVAAISRRGGSTFSADSVKGRFTISRDNAKNTVYLQMNSLKPADTAVYYCAALSNHGYYIRMDYWGHGTQVTVSS | high polyreactivity

Reference: the nanobody polyreactivity screen of Harvey et al. (2022)
